Data: patent US20250376539A1 (KIRA PHARMACEUTICALS SUZHOU, published 2025)
Residue numbers refer to the chain shown, from its start. Each block holds one binder with its values, some of them ahead of it.

What was measured:
[1] = biological target: T1, recombinant human complement C2 (NP_000054.2), C-terminal 6His-tag, made in house (CHO cell expression) (human, UniProt P06681 21-752); test: BLI (Gator); ratio of dissociation at pH 5.8 to pH 7.4
T1 construct: a linker before the tag is not described; also called human C2; Human C2
T1 sequence: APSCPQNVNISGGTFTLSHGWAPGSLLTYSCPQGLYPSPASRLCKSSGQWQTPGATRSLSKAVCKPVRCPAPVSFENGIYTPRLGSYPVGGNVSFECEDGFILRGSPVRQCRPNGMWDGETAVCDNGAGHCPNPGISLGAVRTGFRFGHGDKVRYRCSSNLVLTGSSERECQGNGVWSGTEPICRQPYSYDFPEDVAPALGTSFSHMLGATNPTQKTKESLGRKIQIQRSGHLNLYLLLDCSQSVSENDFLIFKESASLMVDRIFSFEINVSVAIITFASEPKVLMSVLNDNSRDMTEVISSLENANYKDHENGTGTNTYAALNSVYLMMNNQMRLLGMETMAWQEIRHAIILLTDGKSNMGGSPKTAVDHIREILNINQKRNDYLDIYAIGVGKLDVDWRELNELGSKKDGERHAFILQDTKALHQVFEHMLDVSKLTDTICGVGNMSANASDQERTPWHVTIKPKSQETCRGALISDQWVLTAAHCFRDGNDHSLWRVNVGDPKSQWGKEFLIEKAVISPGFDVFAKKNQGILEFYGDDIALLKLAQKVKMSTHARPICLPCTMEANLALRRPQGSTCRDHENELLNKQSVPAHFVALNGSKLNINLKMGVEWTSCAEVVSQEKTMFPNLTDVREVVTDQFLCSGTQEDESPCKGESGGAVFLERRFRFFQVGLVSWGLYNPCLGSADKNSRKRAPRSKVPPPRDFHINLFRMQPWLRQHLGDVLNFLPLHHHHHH
Procedure: (§1) The histidine mutant constructs in Table 4 were tested for their pH-dependent dissociation from human C2. Probe-immobilized anti-C2 antibodies were incubated with C2 at pH 7.4 for 600s, followed by a 600s dissociation period in K Buffer at pH 7.4 or pH 5.8. The data were processed and analyzed by the Gator evaluation software.

[2] = biological target: T1, recombinant human complement C2 …; test: BLI (Gator), antibody on probe; 600 s association at pH 7.4, 600 s dissociation at pH 5.8
Procedure: as §1

[3] = biological target: T1, recombinant human complement C2 …; test: BLI (Gator), antibody on probe; 600 s association at pH 7.4, 600 s dissociation at pH 7.4
Procedure: as §1

B1: 3.2 H2-10 parental (antibody, V domains shown)
VH: EVQLLESGGGLVQPGGSLRLSCAASGFTFRHYAMSWVRQAPGKGLEWVSLISGSGASTHYADSVKGRFTISRDNSENMLYLQMNSLRAEDTAVYYCAKDSLAVAGSEYFQHWGQGTLVTVSS
VL: SYVLTQAPSVSVAPGQTARITCGGNYFGGKSVHWYQQRPGQAPVLVVYDDSDRPSGIPERFSGSKSGNTATLAISRVEAGDEAAYYCQVYDTSSDHWVFGGGTKLTVL
notes: Histidine mutant of 3.2
Fold dissociation pH 5.8/pH 7.4 [1]: 6.6 fold
Dissociation (%) pH 5.8 [2]: 51.3%
Dissociation (%) pH 7.4 [3]: 7.74%

B2: 3.2 H2-10 × L2-6 (antibody, V domains shown)
VH: B1 VH
VL: B1 VL with P54H
notes: Histidine mutant of 3.2
Fold dissociation pH 5.8/pH 7.4 [1]: 8.8 fold
Dissociation (%) pH 5.8 [2]: 52.6%
Dissociation (%) pH 7.4 [3]: 5.97%

B3: 3.2 H2-10 × L2-7 (antibody, V domains shown)
VH: B1 VH
VL: B1 VL with S55H
notes: Histidine mutant of 3.2
Fold dissociation pH 5.8/pH 7.4 [1]: 9.8 fold
Dissociation (%) pH 5.8 [2]: 52.7%
Dissociation (%) pH 7.4 [3]: 5.39%

B4: 3.2 H2-10 × L1-8 (antibody, V domains shown)
VH: B1 VH
VL: B1 VL with K30H
notes: Histidine mutant of 3.2
Fold dissociation pH 5.8/pH 7.4 [1]: 10.4 fold
Dissociation (%) pH 5.8 [2]: 51.8%
Dissociation (%) pH 7.4 [3]: 5%

B5: 3.2 H2-10 × L2-5 (antibody, V domains shown)
VH: B1 VH
VL: B1 VL with R53H
notes: Histidine mutant of 3.2
Fold dissociation pH 5.8/pH 7.4 [1]: 9.7 fold
Dissociation (%) pH 5.8 [2]: 51.6%
Dissociation (%) pH 7.4 [3]: 5.33%

B6: 3.2 H2-10 × L2-1 (antibody, V domains shown)
VH: B1 VH
VL: B1 VL with D49H
notes: Histidine mutant of 3.2
Fold dissociation pH 5.8/pH 7.4 [1]: 5.8 fold
Dissociation (%) pH 5.8 [2]: 81.3%
Dissociation (%) pH 7.4 [3]: 13.9%

B10: 3.2 H2-10 × L2-3 (antibody, V domains shown)
VH: B1 VH
VL: B1 VL with S51H
notes: Histidine mutant of 3.2
Fold dissociation pH 5.8/pH 7.4 [1]: 8.1 fold
Dissociation (%) pH 5.8 [2]: 46.2%
Dissociation (%) pH 7.4 [3]: 5.69%

B12: 3.2 H2-10 × L1-7 (antibody, V domains shown)
VH: B1 VH
VL: B1 VL with G29H
notes: Histidine mutant of 3.2
Fold dissociation pH 5.8/pH 7.4 [1]: 12.8 fold
Dissociation (%) pH 5.8 [2]: 52%
Dissociation (%) pH 7.4 [3]: 4.05%

The remaining lines, values ahead:

Fold dissociation pH 5.8/pH 7.4 [1]: 7.2 fold
Dissociation (%) pH 5.8 [2]: 90.7%
Dissociation (%) pH 7.4 [3]: 12.6%
B7: 3.2 H2-10 × L3-5 (antibody, V domains shown)
VH: B1 VH
VL: B1 VL with T92H
notes: Histidine mutant of 3.2

Fold dissociation pH 5.8/pH 7.4 [1]: 8.7 fold
Dissociation (%) pH 5.8 [2]: 62.6%
Dissociation (%) pH 7.4 [3]: 7.16%
B8: 3.2 H2-10 × L3-11 (antibody, V domains shown)
VH: B1 VH
VL: B1 VL with V98H
notes: Histidine mutant of 3.2

Fold dissociation pH 5.8/pH 7.4 [1]: 6.2 fold
Dissociation (%) pH 5.8 [2]: 82.8%
Dissociation (%) pH 7.4 [3]: 13.3%
B9: 3.2 H2-10 × L3-4 (antibody, V domains shown)
VH: B1 VH
VL: B1 VL with D91H
notes: Histidine mutant of 3.2

Fold dissociation pH 5.8/pH 7.4 [1]: 8.6 fold
Dissociation (%) pH 5.8 [2]: 60%
Dissociation (%) pH 7.4 [3]: 7%
B11: 3.2 H2-10 × L3-7 (antibody, V domains shown)
VH: B1 VH
VL: B1 VL with S94H
notes: Histidine mutant of 3.2
